Assay results reported in patent US6875741 (Novo Nordisk, dated 2005).
No end group written: not given here.

B1: RP9 (peptide)
peptide: GSLDESFYDWFERQLG
notes: Formula 1, Site 1 peptide; also called H2C-PD1-IGFR
B2: G33 (peptide)
peptide: GIISQSCPESFYDWFAGQVSDPWWCW
notes: Formula 1, Site 1 peptide; also called H2CA-4-G9-IGFR; S326

target: T1, soluble human insulin receptor-immunoglobulin heavy chain chimera (human, UniProt P06213 28-956); experiment: phage ELISA ratios compared
T1 construct: extracellular domain; Heterotetramer; also called IR; sIR-Fc; not shown: immunoglobulin heavy chain constant domains replacing the transmembrane and intr

| IR/IGF-1R ratio comparison | Binder |
| --- | --- |
| 0.1 | VGRASGFPENFYDWFGRQLSLQSGEQ [H2CA-4-H6-IGFR] |
| 0.2 | AVRATRFDEAFYDWFVRQISDGQGNK [H2CA-4-F6-IGFR] |
| 0.1 | GIISQSCPESFYDWFAGQVSDPWWCW [H2CA-4-G9-IGFR] |
| 0.2 | RGKTAAVIVGRPADPFYHKLSELLQGG [B6Hα-3-E8-IR] |
| 0.1 | SAAQLFFQESFYDWFLRQVAESSQPN [H2CA-4-F11-IGFR] |
| 0.1 | SACQFDCHENFYDWFARQVSGGAAYG [H2CA-4-H8-IGFR] |
| 0.3 | SRAKVEAEMPDSGDPFYHKLSELLASG [B6Hα-1-A3-IR] |
| 0.3 | LSVALSFYDALGQLVAGEGRW [20E2A-3-A12-IGFR] |
| 0.1 | VGYQGQGDENFYDWFIRQVSGRLGVQ [H2CA-4-F5-IGFR] |
| 0.2 | GCAVVEEAERSRGDPFYHKLSELIQGC [B6Hα-3-E7-IR] |
| 0.3 | AETSVQVGWIRLQSVWPGEHWNTVDPFYHKLSELLRGSGA [B6L-4-D7-IR] |

target: T2, Soluble IGF-1R (R&D Systems, Cat. # 391-GR) (UniProt P08069 31-935, limits assumed); experiment: phage ELISA ratios compared
T2 construct: extracellular domain; bought; also called sIGF-1R

| IGF-1R/IR ratio comparison | Binder |
| --- | --- |
| 14.6 | VGRASGFPENFYDWFGRQLSLQSGEQ [H2CA-4-H6-IGFR] |
| 6.4 | AVRATRFDEAFYDWFVRQISDGQGNK [H2CA-4-F6-IGFR] |
| 16 | GIISQSCPESFYDWFAGQVSDPWWCW [H2CA-4-G9-IGFR] |
| 4.8 | RGKTAAVIVGRPADPFYHKLSELLQGG [B6Hα-3-E8-IR] |
| 6.7 | SAAQLFFQESFYDWFLRQVAESSQPN [H2CA-4-F11-IGFR] |
| 9.4 | SACQFDCHENFYDWFARQVSGGAAYG [H2CA-4-H8-IGFR] |
| 3.3 | SRAKVEAEMPDSGDPFYHKLSELLASG [B6Hα-1-A3-IR] |
| 3.9 | LSVALSFYDALGQLVAGEGRW [20E2A-3-A12-IGFR] |
| 12.3 | VGYQGQGDENFYDWFIRQVSGRLGVQ [H2CA-4-F5-IGFR] |
| 4.3 | GCAVVEEAERSRGDPFYHKLSELIQGC [B6Hα-3-E7-IR] |
| 3.4 | AETSVQVGWIRLQSVWPGEHWNTVDPFYHKLSELLRGSGA [B6L-4-D7-IR] |

target: T3, human insulin receptor (HIR) (human, UniProt P06213 28-1382, limits assumed); experiment: 125I-insulin competition, solubilized HIR
T3 construct: solubilized receptor from transfected cells

| Kd | Binder |
| --- | --- |
| 50 nM | DWLQRNANFYDWFVAEL (not fully specified; C-terminal Lig′, linker 14) [S300] |
| 180 nM | XGSLDESFYDWFERQLGKK (not fully specified; N-terminal Ald, linker 17, N-N dimer) [S374] |
| 160 nM | XGSLDESFYDWFERQLGKK (N-terminal Ald, linker 19, N-N dimer) [S376] |
| 2200 nM | GSLDESFYDWFERQLGKKX (not fully specified; C-terminal Lig′, linker 24, C-C dimer) [S361] |
| 700 nM | CGFHENFYDWFVRQVSKK (also: N-N dimer, two chains linked at Cys1, N-N dimer) [S170] |
| 120 nM | EEDWLQRNANFYDWFVAELX (C-terminal Lig′ (printed LiG′), linker 23, C-C dimer) [S381] |
| 110 nM | XGSLDESFYDWFERQLGKK (not fully specified; N-terminal Lig′, linker 24, N-N dimer) [S362] |

target: T4, soluble human insulin receptor-immunoglobulin heavy chain chimera (human, UniProt P06213 28-956, limits assumed); experiment: ratio of IC50 on rhIGF-1R (TR-FRET vs b-20E2) to IC50 on sIR-Fc (FP vs FITC-RP9)
T4 construct: extracellular domain; also called sIR-Fc; slR-Fc; not shown: immunoglobulin heavy chain constant domains

| Binding Ratio IGF-1R/IR | Binder |
| --- | --- |
| 1.4 | B1 |
| 25 | SQAGSAFYAWFDQVLRTV (Formula 1, Site 1 peptide) [RP15] |
| 0.15 | VMDARDDPFYHKLSELVT [RP16] |
| 1.9 | DYKDFYDAIDQLVRGSARAGGTRD (Formula 2, Site 1 peptide) [20E2 (D118)] |
| 9 | FHENFYDWFVQRVSKK (Formula 1, Site 1 peptide) [H2C (D117)] |
| 1.3 | B2 |
| 476 | PPWGARFYDAIEQLVFDNL (Formula 2, Site 1 peptide) [RP4] |
